Laboratory results: patent US20040131591A1 (OXFORD BIOMEDICA UK, published 2004)

Molecular target: T1, human 5T4 (oncofetal glycoprotein 5T4, trophoblast cell surface antigen) (human, UniProt Q13641 32-420)
T1 construct: whole, on cells; also called h5T4; 5T4 antigen
T1 sequence (looked up): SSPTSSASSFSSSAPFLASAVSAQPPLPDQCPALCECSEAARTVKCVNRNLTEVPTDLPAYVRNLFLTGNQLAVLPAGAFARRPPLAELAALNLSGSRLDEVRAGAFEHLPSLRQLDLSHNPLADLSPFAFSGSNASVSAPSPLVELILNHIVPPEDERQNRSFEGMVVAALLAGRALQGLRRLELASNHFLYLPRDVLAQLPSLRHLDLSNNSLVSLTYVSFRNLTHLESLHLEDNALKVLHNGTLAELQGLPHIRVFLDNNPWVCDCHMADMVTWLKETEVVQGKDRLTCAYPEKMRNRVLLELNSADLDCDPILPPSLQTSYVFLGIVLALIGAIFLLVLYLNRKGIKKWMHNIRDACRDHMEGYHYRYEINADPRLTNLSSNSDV
Assay: FACS: A9-h5T4 cells with B7.1/ScFv supernatant, then CTLA4-Ig, detected with FITC anti-mouse Ig
Experimental: After washing cells were incubated with CTLA4-Ig (Ancell) for 1 hour. After washing, bound CTLA4-Ig was detected using an FITC conjugated anti-mouse Ig (Dako).

B1: B7-1/ScFv fusion protein (leader sequence and extracellular domain of murine B7.1 fused via a flexible linker to the VH and VL of the murine Mab 5T4 specific … (other)
chain: VDEQLSKSVKDKVLLPCRYNSPHEDESEDRIYWQKHDKVVLSVIAGKLKVWPEYKNRTLYDNTTYSLIILGLVLSDRGTYSCVVQKKERGTYEVKHLALVKLSIKADFSTPNITESGNPSADTKRITCFASGGFPKPRFSWLENGRELPGINTTISQDPESELYTISSQLDFNTTRNHTIKCLIKYGDAHVSEDFTWEKPPEDPPDSKPGGGGSGGGGSGGGGTSEVQLQQSGPDLVKPGASVKISCKASGYSFTGYYMHWVKQSHGKSLEWIGRINPNNGVTLYNQKFKDKAILTVDKSSTTAYMELRSLTSEDSAVYYCARSTMITNYVMDYWGQVTSVTVSSGGGGSGGGGTGGGGSSIVMTQTPTFLLVSAGDRVTITCKASQSVSNDVAWYQQKPGQSPTLLISYTSSRYAGVPDRFIGSGYGTDFTFTISTLQAEDLAVYFCQQDYNSPPTFGGGTKLEIKR
notes: Tested as about 30-fold concentrated supernatant of transiently transfected 293T cells; also called B7/ScFv; OBM 233
Q: Does B1 bind?
A: Result: binds
